How the values were obtained:
Experiment in all cases: pulldown
[1] = target: T1, LmjF.32.2810 (Leishmania major) (UniProt Q4Q4Z4); settings: 20 nM protein, 1.5 uM RNA pool; 20 mM HEPES pH 7.8, 70 mM KCl, 10 mM NaCl, 10% glycerol, 2 mM DTT, 0.1 ug/uL BSA; 30 min, 4 C
T1 sequence: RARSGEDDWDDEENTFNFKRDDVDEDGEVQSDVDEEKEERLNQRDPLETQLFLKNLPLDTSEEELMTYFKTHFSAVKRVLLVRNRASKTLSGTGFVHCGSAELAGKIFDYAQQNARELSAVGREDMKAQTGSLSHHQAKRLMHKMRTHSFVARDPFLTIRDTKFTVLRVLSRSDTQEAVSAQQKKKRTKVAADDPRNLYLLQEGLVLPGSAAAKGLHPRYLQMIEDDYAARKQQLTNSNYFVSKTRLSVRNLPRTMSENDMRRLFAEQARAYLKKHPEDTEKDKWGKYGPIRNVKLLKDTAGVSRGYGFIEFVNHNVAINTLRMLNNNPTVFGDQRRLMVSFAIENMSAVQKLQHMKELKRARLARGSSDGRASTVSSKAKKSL

[2] = target: T2, SCHCODRAFT_35516 S109T;I250V (Schizophyllum commune) (UniProt A0ACF2EGB7); settings: 20 nM protein, 1.5 uM RNA pool; 20 mM HEPES pH 7.8, 70 mM KCl, 10 mM NaCl, 10% glycerol, 2 mM DTT, 0.1 ug/uL BSA; 30 min, 4 C
T2 sequence: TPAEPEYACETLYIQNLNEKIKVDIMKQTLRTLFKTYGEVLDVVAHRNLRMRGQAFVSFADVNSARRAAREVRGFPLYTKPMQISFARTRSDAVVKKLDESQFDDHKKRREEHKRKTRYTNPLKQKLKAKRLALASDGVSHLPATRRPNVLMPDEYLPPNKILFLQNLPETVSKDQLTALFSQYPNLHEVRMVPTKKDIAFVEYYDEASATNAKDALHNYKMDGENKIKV

[3] = target: T3, LmjF.29.1360 (Leishmania major) (UniProt E9ADZ5); settings: 20 nM protein, 1.5 uM RNA pool; 20 mM HEPES pH 7.8, 70 mM KCl, 10 mM NaCl, 10% glycerol, 2 mM DTT, 0.1 ug/uL BSA; 30 min, 4 C
T3 sequence: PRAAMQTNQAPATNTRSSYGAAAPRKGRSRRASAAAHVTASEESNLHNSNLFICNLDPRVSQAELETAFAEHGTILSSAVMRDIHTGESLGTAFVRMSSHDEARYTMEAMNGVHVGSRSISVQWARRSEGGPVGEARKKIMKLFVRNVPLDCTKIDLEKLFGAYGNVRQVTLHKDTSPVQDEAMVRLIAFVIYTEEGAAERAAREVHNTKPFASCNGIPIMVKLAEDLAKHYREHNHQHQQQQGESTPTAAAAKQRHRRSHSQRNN

[4] = target: T4, LmjF.30.2180 (Leishmania major) (UniProt Q4Q775); settings: 20 nM protein, 1.5 uM RNA pool; 20 mM HEPES pH 7.8, 70 mM KCl, 10 mM NaCl, 10% glycerol, 2 mM DTT, 0.1 ug/uL BSA; 30 min, 4 C
T4 sequence: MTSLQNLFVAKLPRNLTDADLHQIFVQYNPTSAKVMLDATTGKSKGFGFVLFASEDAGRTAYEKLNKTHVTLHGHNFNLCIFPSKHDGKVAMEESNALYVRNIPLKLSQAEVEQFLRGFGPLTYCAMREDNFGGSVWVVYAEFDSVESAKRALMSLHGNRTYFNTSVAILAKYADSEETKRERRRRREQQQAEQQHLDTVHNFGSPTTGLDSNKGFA

[5] = target: T5, SCHCODRAFT_72118 N130T;T236A;D255N (Schizophyllum commune) (UniProt A0ACF2F787); settings: 20 nM protein, 1.5 uM RNA pool; 20 mM HEPES pH 7.8, 70 mM KCl, 10 mM NaCl, 10% glycerol, 2 mM DTT, 0.1 ug/uL BSA; 30 min, 4 C
T5 sequence: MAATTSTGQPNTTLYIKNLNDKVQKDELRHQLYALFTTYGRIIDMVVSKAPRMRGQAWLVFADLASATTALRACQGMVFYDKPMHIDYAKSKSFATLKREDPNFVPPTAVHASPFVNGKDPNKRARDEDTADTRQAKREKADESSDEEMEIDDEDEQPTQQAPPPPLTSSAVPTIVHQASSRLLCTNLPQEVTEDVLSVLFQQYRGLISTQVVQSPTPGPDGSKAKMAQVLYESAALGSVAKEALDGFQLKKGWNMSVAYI

ELAVL1 (Homo sapiens) = ELAVL1 (Homo sapiens) (UniProt Q15717); settings: 20 nM protein, 1.5 uM RNA pool; 20 mM HEPES pH 7.8, 70 mM KCl, 10 mM NaCl, 10% glycerol, 2 mM DTT, 0.1 ug/uL BSA; 30 min, 4 C (protocol of this paper; not …); cited from earlier work
[6] = target: T6, Tb11.03.0550 L37P (Trypanosoma brucei) (UniProt Q387J8); settings: 20 nM protein, 1.5 uM RNA pool; 20 mM HEPES pH 7.8, 70 mM KCl, 10 mM NaCl, 10% glycerol, 2 mM DTT, 0.1 ug/uL BSA; 30 min, 4 C
T6 sequence: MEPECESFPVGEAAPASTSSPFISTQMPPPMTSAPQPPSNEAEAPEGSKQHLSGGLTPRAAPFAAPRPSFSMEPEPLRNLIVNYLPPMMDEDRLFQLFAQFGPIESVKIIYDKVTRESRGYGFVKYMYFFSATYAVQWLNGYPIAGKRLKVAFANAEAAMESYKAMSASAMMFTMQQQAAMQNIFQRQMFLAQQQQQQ

[7] = target: T7, LmjF.33.1450 (Leishmania major) (UniProt Q4Q442); settings: 20 nM protein, 1.5 uM RNA pool; 20 mM HEPES pH 7.8, 70 mM KCl, 10 mM NaCl, 10% glycerol, 2 mM DTT, 0.1 ug/uL BSA; 30 min, 4 C
T7 sequence: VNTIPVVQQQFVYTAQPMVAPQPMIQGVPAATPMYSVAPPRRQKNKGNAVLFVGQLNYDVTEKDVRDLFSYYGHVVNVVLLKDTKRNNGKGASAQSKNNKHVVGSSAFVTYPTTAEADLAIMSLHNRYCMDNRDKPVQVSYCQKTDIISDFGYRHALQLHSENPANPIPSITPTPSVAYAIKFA

[8] = target: T8, PK10695.1 (Cannabis sativa) (UniProt A0A803NZQ3); settings: 20 nM protein, 1.5 uM RNA pool; 20 mM HEPES pH 7.8, 70 mM KCl, 10 mM NaCl, 10% glycerol, 2 mM DTT, 0.1 ug/uL BSA; 30 min, 4 C
T8 sequence: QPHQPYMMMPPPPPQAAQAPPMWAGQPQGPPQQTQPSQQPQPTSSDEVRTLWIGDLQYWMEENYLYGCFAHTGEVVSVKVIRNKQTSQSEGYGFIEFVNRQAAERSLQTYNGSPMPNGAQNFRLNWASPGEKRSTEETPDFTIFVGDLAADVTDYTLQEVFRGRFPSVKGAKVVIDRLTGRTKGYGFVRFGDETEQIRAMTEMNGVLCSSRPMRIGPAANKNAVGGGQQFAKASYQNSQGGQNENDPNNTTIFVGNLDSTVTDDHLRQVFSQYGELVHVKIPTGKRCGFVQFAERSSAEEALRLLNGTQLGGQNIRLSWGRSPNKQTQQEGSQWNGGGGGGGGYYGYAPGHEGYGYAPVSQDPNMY

[9] = target: T9, Tb10.389.1650 (Trypanosoma brucei) (UniProt Q389D4); settings: 20 nM protein, 1.5 uM RNA pool; 20 mM HEPES pH 7.8, 70 mM KCl, 10 mM NaCl, 10% glycerol, 2 mM DTT, 0.1 ug/uL BSA; 30 min, 4 C
T9 sequence: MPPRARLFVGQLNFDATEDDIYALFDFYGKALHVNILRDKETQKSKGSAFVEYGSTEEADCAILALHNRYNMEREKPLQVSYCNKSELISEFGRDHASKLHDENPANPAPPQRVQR

Chain of ELAVL1 (Homo sapiens) (Q15717 1-325): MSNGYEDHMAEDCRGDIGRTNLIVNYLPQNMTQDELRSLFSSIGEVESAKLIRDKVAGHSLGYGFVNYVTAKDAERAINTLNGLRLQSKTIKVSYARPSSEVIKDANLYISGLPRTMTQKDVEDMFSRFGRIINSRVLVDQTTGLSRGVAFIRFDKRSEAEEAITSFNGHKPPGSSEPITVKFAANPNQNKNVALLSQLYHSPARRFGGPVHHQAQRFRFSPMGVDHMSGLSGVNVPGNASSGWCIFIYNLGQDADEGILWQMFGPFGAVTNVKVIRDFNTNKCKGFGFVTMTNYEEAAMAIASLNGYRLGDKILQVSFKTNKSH

## GUAGNA [RNAcompete motif RNCMPT00716]
[1]
  binding signal (z-score (mean of top ten 7-mers)): 6.94

## UAGCACA [RNAcompete motif RNCMPT00725]
[2]
  binding signal (z-score (mean of top ten 7-mers)): 10.8

## UAUAGU [RNAcompete motif RNCMPT00714]
[3]
  binding signal (z-score (mean of top ten 7-mers)): 20.4

## UCAAAA [RNAcompete motif RNCMPT00715]
[4]
  binding signal (z-score (mean of top ten 7-mers)): 22.8

## UGCACA [RNAcompete motif RNCMPT00723]
[5]
  binding signal (z-score (mean of top ten 7-mers)): 8.86

## UUAUUUU [RNAcompete motif RNCMPT00032]
ELAVL1 (Homo sapiens)
  binding signal (z-score (mean of top ten 7-mers)): 15

## UUAUUUU [RNAcompete motif RNCMPT00749]
[6]
  binding signal (z-score (mean of top ten 7-mers)): 13.9

## UUGCAGU [RNAcompete motif RNCMPT00717]
[7]
  binding signal (z-score (mean of top ten 7-mers)): 21.8

## UUUAUUUU [RNAcompete motif RNCMPT00741]
[8]
  binding signal (z-score (mean of top ten 7-mers)): 10.2

## UUUGCU [RNAcompete motif RNCMPT00732]
[9]
  binding signal (z-score (mean of top ten 7-mers)): 18.9

Reference: PMC12990809
